{"source": "the RNAGym collection of RNA variant scans (doi:10.1021/acssynbio.7b00057)", "parents": {"B1": {"name": "Pistol ribozyme (parent)", "chain": "GGGUCGUUGUUCCAUAAUCGCGUGGAUAUGGCACGCAAGUUUCUACCGGGCACCGUAAAUGUCCGACUGGAGCCGUUCGGGCGGCUAUAAACAGACCUCAGGCCCGAAGCGUGGCGGCACCUGCCGCCGGUGGUAAAAAAGAUCGGAAGAGCACACGUCU"}}, "data": [{"variants_of": "B1", "assay": "aptazyme ON/OFF ratio, guanine; higher = stronger switching; co-transcriptional cleavage with and without guanine", "values": [{"variant": "U7C U8G G9A U10A C13G", "aptazyme ON/OFF ratio": 1.05}, {"variant": "U7C U8G G9A U10A C13A", "aptazyme ON/OFF ratio": 1.12}, {"variant": "U7C U8G G9A U10C C12A", "aptazyme ON/OFF ratio": 1.18}, {"variant": "U7C U8G G9A U10C C12U", "aptazyme ON/OFF ratio": 2.39}, {"variant": "U7C U8G G9A U10C C12G", "aptazyme ON/OFF ratio": 1.23}, {"variant": "U7C U8G G9A U10C U11G C12A C13A", "aptazyme ON/OFF ratio": 1.12}, {"variant": "U7C U8G G9A U10C U11G C12A C13G", "aptazyme ON/OFF ratio": 1.13}, {"variant": "U7C U8G G9A U10C U11G C12A C13U", "aptazyme ON/OFF ratio": 1.14}, {"variant": "U7C U8G G9A U10A C12G", "aptazyme ON/OFF ratio": 1.18}, {"variant": "U7C U8G G9A U10A C12U", "aptazyme ON/OFF ratio": 1.19}, {"variant": "U7C U8G G9A U10A C12A", "aptazyme ON/OFF ratio": 1.26}, {"variant": "U7C U8G G9A U10C U11C C12G C13U", "aptazyme ON/OFF ratio": 1.07}, {"variant": "U7C U8G G9A U10C U11C C12G C13A", "aptazyme ON/OFF ratio": 1.13}, {"variant": "U7C U8G G9A U10C U11C C12G C13G", "aptazyme ON/OFF ratio": 1.14}, {"variant": "U7C U8G G9A U10A C12G C13G", "aptazyme ON/OFF ratio": 1.46}, {"variant": "U7C U8G G9A U10A C12G C13U", "aptazyme ON/OFF ratio": 1.31}, {"variant": "U7C U8G G9A U10A C12G C13A", "aptazyme ON/OFF ratio": 1.11}, {"variant": "U7C U8C U10C U11G", "aptazyme ON/OFF ratio": 1.23}, {"variant": "U7C U8G G9A U10C", "aptazyme ON/OFF ratio": 3.63}, {"variant": "U7C U8G G9A U10A", "aptazyme ON/OFF ratio": 1.18}, {"variant": "U7C U8G G9A U10G", "aptazyme ON/OFF ratio": 2.11}, {"variant": "U7C U8G G9A C13G", "aptazyme ON/OFF ratio": 1.05}, {"variant": "U7C U8G G9A C13A", "aptazyme ON/OFF ratio": 1.14}, {"variant": "U7C U8G G9A C13U", "aptazyme ON/OFF ratio": 1.11}, {"variant": "U7C U8G G9A U10C U11G C13U", "aptazyme ON/OFF ratio": 1.41}, {"variant": "U7C U8G G9A U10C U11G C13G", "aptazyme ON/OFF ratio": 1.12}, {"variant": "U7C U8G G9A U10C U11G C13A", "aptazyme ON/OFF ratio": 1.28}, {"variant": "U7C U8G G9A U10C C12G C13A", "aptazyme ON/OFF ratio": 1.13}, {"variant": "U7C U8G G9A U10C C12G C13G", "aptazyme ON/OFF ratio": 1.12}, {"variant": "U7C U8G G9A U10C C12G C13U", "aptazyme ON/OFF ratio": 1.31}, {"variant": "U7C U8C U10G C12A", "aptazyme ON/OFF ratio": 1.13}, {"variant": "U7C U8C U10G C12G", "aptazyme ON/OFF ratio": 1.12}, {"variant": "U7C U8C U10G C12U", "aptazyme ON/OFF ratio": 1.11}, {"variant": "U7C U8G G9A U10A U11C", "aptazyme ON/OFF ratio": 1.04}, {"variant": "U7C U8G G9A U10A U11G", "aptazyme ON/OFF ratio": 1.33}, {"variant": "U7C U8G G9A U10A U11A", "aptazyme ON/OFF ratio": 1.31}, {"variant": "U7C U8G G9A U10C U11G C12G C13G", "aptazyme ON/OFF ratio": 1.27}, {"variant": "U7C U8G G9A U10C U11G C12G C13U", "aptazyme ON/OFF ratio": 1.09}, {"variant": "U7C U8G G9A U10C U11G C12G C13A", "aptazyme ON/OFF ratio": 1.23}, {"variant": "U7C U8G G9A U10A U11A C12G C13A", "aptazyme ON/OFF ratio": 1.12}, {"variant": "U7C U8G G9A U10A U11A C12G C13G", "aptazyme ON/OFF ratio": 1.21}, {"variant": "U7C U8G G9A U10A U11A C12G C13U", "aptazyme ON/OFF ratio": 1.21}, {"variant": "U7C U8C U10G C12G C13G", "aptazyme ON/OFF ratio": 1.11}, {"variant": "U7C U8C U10G C12G C13U", "aptazyme ON/OFF ratio": 1.13}, {"variant": "U7C U8C U10G C12G C13A", "aptazyme ON/OFF ratio": 1.11}, {"variant": "U7C U8C U10G", "aptazyme ON/OFF ratio": 1.98}, {"variant": "U7C U8G G9A U10A U11A C12U C13U", "aptazyme ON/OFF ratio": 1.16}, {"variant": "U7C U8G G9A U10A U11A C12U C13G", "aptazyme ON/OFF ratio": 1.17}, {"variant": "U7C U8G G9A U10A U11A C12U C13A", "aptazyme ON/OFF ratio": 1.17}, {"variant": "U7C U8C U10G U11C C12U C13U", "aptazyme ON/OFF ratio": 1.29}, {"variant": "U7C U8C U10G U11C C12U C13A", "aptazyme ON/OFF ratio": 1.2}, {"variant": "U7C U8C U10G U11C C12U C13G", "aptazyme ON/OFF ratio": 1.11}, {"variant": "U7C U8G G9A U10G U11C C12A C13G", "aptazyme ON/OFF ratio": 1.1}, {"variant": "U7C U8G G9A U10G U11C C12A C13A", "aptazyme ON/OFF ratio": 1.35}, {"variant": "U7C U8G G9A U10G U11C C12A C13U", "aptazyme ON/OFF ratio": 1.25}, {"variant": "U7C U8C U11G C12G C13U", "aptazyme ON/OFF ratio": 1.09}, {"variant": "U7C U8C U11G C12G C13A", "aptazyme ON/OFF ratio": 1.1}, {"variant": "U7C U8C U11G C12G C13G", "aptazyme ON/OFF ratio": 1.16}, {"variant": "U7C U8C U10G C12U C13A", "aptazyme ON/OFF ratio": 1.08}, {"variant": "U7C U8C U10G C12U C13U", "aptazyme ON/OFF ratio": 1.13}, {"variant": "U7C U8C U10G C12U C13G", "aptazyme ON/OFF ratio": 1.1}, {"variant": "U7C U8G G9A U10G U11C C12U C13G", "aptazyme ON/OFF ratio": 1.25}, {"variant": "U7C U8G G9A U10G U11C C12U C13U", "aptazyme ON/OFF ratio": 1.29}, {"variant": "U7C U8G G9A U10G U11C C12U C13A", "aptazyme ON/OFF ratio": 1.34}, {"variant": "U7C U8G G9A U10C U11G C12U C13A", "aptazyme ON/OFF ratio": 1.26}, {"variant": "U7C U8G G9A U10C U11G C12U C13G", "aptazyme ON/OFF ratio": 1.14}, {"variant": "U7C U8G G9A U10C U11G C12U C13U", "aptazyme ON/OFF ratio": 1.28}, {"variant": "U7C U8C U10G U11A C13G", "aptazyme ON/OFF ratio": 1.14}, {"variant": "U7C U8C U10G U11A C13U", "aptazyme ON/OFF ratio": 1.15}, {"variant": "U7C U8C U10G U11A C13A", "aptazyme ON/OFF ratio": 1.21}, {"variant": "U7C U8G G9A", "aptazyme ON/OFF ratio": 1.12}, {"variant": "U7C U8C U10C U11G C12U C13A", "aptazyme ON/OFF ratio": 1.28}, {"variant": "U7C U8C U10C U11G C12U C13G", "aptazyme ON/OFF ratio": 1.23}, {"variant": "U7C U8C U10C U11G C12U C13U", "aptazyme ON/OFF ratio": 1.3}, {"variant": "U7C U8G G9A U10G C12U C13A", "aptazyme ON/OFF ratio": 1.46}, {"variant": "U7C U8G G9A U10G C12U C13U", "aptazyme ON/OFF ratio": 1.26}, {"variant": "U7C U8G G9A U10G C12U C13G", "aptazyme ON/OFF ratio": 1.19}, {"variant": "U7C U8C U11C C12G C13G", "aptazyme ON/OFF ratio": 1.31}, {"variant": "U7C U8C U11C C12G C13A", "aptazyme ON/OFF ratio": 1.4}, {"variant": "U7C U8C U11C C12G C13U", "aptazyme ON/OFF ratio": 1.33}, {"variant": "U7C U8C U11G C12A C13G", "aptazyme ON/OFF ratio": 1.11}, {"variant": "U7C U8C U11G C12A C13A", "aptazyme ON/OFF ratio": 1.14}, {"variant": "U7C U8C U11G C12A C13U", "aptazyme ON/OFF ratio": 1.2}]}]}
